Like-named read-outs stand apart in the source and are kept apart here. Non-standard residues stand in square brackets, D forms with d. No end group written: not given here. hArg = N=C(N)NCCCC[C@H](N)C(=O)O; Orn = NCCC[C@H](N)C(=O)O
T1: human GHRH receptor (human, UniProt Q02643 23-423)
T1 sequence (looked up): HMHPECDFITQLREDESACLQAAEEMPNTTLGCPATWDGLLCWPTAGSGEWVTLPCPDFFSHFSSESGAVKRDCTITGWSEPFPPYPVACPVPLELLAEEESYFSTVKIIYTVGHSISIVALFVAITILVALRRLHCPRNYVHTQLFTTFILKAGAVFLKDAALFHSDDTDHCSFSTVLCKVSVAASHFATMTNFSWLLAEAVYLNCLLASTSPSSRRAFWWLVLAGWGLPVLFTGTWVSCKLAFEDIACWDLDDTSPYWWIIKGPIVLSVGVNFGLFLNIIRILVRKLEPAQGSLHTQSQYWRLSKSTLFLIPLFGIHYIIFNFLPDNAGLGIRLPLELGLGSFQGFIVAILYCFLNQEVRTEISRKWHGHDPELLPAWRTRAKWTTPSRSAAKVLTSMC

B1: Analog 3 (C22) (peptide)
peptide: Y[dA]DAIFTASYR[Orn]VLAQLSAR[Orn]C(PEG 2 kDa)LQDILSKN-NH2
B2: Analog 4 (C19) (peptide)
peptide: Y[dA]DAIFTASYR[Orn]VLAQLSC(PEG 2 kDa)R[Orn]ALQDILSKN-NH2
B3: Analog 5 (C15) (peptide)
peptide: Y[dA]DAIFTASYR[Orn]VLC(PEG 2 kDa)QLSAR[Orn]ALQDILSKN-NH2
B4: Analog 6 (C9) (peptide)
peptide: Y[dA]DAIFTAC(PEG 2 kDa)YR[Orn]VLAQLSAR[Orn]ALQDILSKN-NH2
B5: Human GHRH1-29 (peptide)
peptide: YADAIFTNSYRKVLGQLSARKLLQDIMSX
modifications: C-terminal amide
B6: Analog 7 (C8) (peptide)
peptide: Y[dA]DAIFTC(PEG 2 kDa)SYR[Orn]VLAQLSAR[Orn]ALQDILSKN-NH2
B7: Analog 8 (C26) (peptide)
peptide: Y[dA]DAIFTASYR[Orn]VLAQLSAR[Orn]ALQDC(PEG 2 kDa)LSKN-NH2
B8: Analog 9 (C16) (peptide)
peptide: Y[dA]DAIFTASYR[Orn]VLAC(PEG 2 kDa)LSAR[Orn]ALQDILSKN-NH2
B9: Analog 10 (C9) (peptide)
peptide: Y[dA]DAIFTAC(PEG 2 kDa)YR[Orn]VLAQLSAR[Orn]ALQDILS[hArg]-NH2
B10: Analog 11 (C9,31) (peptide)
peptide: Y[dA]DAIFTAC(PEG 2 kDa)YR[Orn]VLAQLSAR[Orn]ALQDILSRNC(PEG 2 kDa)-NH2
B11: Analog 1 (C28) (peptide)
peptide: Y[dA]DAIFTASYR[Orn]VLAQLSAR[Orn]ALQDILC(PEG 2 kDa)KN-NH2
B12: Analog 12 (C9,28) (peptide)
peptide: Y[dA]DAIFTAC(PEG 2 kDa)YR[Orn]VLAQLSAR[Orn]ALQDILC(PEG 2 kDa)RN-NH2
B13: Analog 13 (C9,24) (peptide)
peptide: Y[dA]DAIFTAC(PEG 2 kDa)YR[Orn]VLAQLSAR[Orn]ALC(PEG 2 kDa)DILSRN-NH2
B14: Analog 14 (C9,22) (peptide)
peptide: Y[dA]DAIFTAC(PEG 2 kDa)YR[Orn]VLAQLSAR[Orn]C(PEG 2 kDa)LQDILSRN-NH2
B15: Analog 15 (C9) (peptide)
peptide: Y[dA]DAIFTACYR[Orn]VLAQLSAR[Orn]ALQDILS[hArg]-NH2
modifications: not fully specified (residue 9); printed as YaDAIFTAC(Peg-5K)YROVLAQLSAROALQDILS(Har)-NH2
B16: Analog 16 (C9) (peptide)
peptide: Y[dA]DAIFTAC(PEG 40 kDa)YR[Orn]VLAQLSAR[Orn]ALQDILS[hArg]-NH2
B17: Analog 2 (C24) (peptide)
peptide: Y[dA]DAIFTASYR[Orn]VLAQLSAR[Orn]ALC(PEG 2 kDa)DILSKN-NH2

Columns and labels:
human GHRH receptor [1] = target: T1, human GHRH receptor; assay: cell-based or functional assay
human GHRH receptor [2] = target: T1, human GHRH receptor; assay: cell-based or functional assay; remark: listed apart in the source

Binder | EC50 (nM), Hit Hunter cAMP agonist assay (human GHRH receptor [1]) [nM] | Max Response (%) (human GHRH receptor [1]) | Potency (%) (% EC50 compared to baseline) (human GHRH receptor [1]) | Max. response (%) (human GHRH receptor [2]) | Potency (%) (% EC50 compared to baseline) (human GHRH receptor [2]) | EC50 (nM), Hit Hunter cAMP agonist assay (human GHRH receptor [2]) [nM]
B1 | 0.25 | 100 | 143 |  |  | 
B2 | 1.32 | 94.9 | 27 |  |  | 
B3 | 1.38 | 107 | 26 |  |  | 
B4 | 0.29 | 102 | 123 |  |  | 
B5 |  | 104 | 100 | 113 | 100 | 
B6 | 0.69 | 108 | 52 |  |  | 
B7 | 0.98 | 106 | 37 |  |  | 
B8 | 0.92 | 107 | 39 |  |  | 
B9 |  |  |  | 96.2 | 1400 | 0.11
B10 |  |  |  | 97.2 | 314 | 0.47
B11 | 0.29 | 105 | 125 |  |  | 
B12 |  |  |  | 102 | 416 | 
B13 |  |  |  | 103 | 361 | 0.41
B14 |  |  |  | 97.2 | 203 | 0.73
B15 |  |  |  | 94.3 | 669 | 0.22
B16 |  |  |  | 93.7 | 200 | 0.74
B17 | 0.28 | 108 | 130 |  |  | 

— patent publication US20170296628A1 (GRIFFON PHARMACEUTICALS, published 2017)
